Experimental data reported in publication doi:10.1101/2020.07.24.212647 (bioRxiv, 2020).

Molecular target: the molecule itself
Experiment: crystal structure

B1: M. tuberculosis E2b catalytic domain (MtE2b_CD) (domain or fragment)
chain: PDVRPVHGVHARMAEKMTLSHKEIPTAKASVEVICAELLRLRDRFVSAAPEITPFALTLRLLVIALKHNVILNSTWVDSGEGPQVHVHRGVHLGFGAATERGLLVPVVTDAQDKNTRELASRVAELITGAREGTLTPAELRGSTFTVSNFGALGVDDGVPVINHPEAAILGLGAIKPRPVVVGGEVVARPTMTLTCVFDHRVVDGAQVAQFMCELRDLIESPETALLDL
  stoichiometry N: 24
